The results in this text go back to patent US20240287163A1 (Chugai, published 2024).

Test [1] deals with T1, recombinant cynomolgus C1r2s2 tetramer (cynomolgus monkey, limits assumed).
T1 construct: also called cyC1r2s2; monkey C1r2s2
T1 chain 1: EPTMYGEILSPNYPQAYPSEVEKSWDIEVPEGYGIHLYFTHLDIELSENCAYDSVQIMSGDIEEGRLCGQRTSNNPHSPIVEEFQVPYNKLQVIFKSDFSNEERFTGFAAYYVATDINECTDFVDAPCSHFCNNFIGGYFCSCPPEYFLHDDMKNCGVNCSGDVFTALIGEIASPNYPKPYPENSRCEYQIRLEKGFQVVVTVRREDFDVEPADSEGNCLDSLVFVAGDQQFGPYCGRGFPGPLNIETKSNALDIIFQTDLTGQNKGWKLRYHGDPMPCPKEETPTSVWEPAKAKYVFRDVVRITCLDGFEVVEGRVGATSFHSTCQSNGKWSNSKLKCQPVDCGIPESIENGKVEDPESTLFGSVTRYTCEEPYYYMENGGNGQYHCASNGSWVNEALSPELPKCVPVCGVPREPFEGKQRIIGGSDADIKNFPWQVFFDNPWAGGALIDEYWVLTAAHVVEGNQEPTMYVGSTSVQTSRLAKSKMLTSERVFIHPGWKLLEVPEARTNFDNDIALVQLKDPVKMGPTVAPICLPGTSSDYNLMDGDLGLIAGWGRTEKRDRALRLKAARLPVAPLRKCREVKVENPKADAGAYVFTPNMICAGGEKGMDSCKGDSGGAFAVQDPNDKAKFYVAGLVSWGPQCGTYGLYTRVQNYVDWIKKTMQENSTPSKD
T1 chain 2: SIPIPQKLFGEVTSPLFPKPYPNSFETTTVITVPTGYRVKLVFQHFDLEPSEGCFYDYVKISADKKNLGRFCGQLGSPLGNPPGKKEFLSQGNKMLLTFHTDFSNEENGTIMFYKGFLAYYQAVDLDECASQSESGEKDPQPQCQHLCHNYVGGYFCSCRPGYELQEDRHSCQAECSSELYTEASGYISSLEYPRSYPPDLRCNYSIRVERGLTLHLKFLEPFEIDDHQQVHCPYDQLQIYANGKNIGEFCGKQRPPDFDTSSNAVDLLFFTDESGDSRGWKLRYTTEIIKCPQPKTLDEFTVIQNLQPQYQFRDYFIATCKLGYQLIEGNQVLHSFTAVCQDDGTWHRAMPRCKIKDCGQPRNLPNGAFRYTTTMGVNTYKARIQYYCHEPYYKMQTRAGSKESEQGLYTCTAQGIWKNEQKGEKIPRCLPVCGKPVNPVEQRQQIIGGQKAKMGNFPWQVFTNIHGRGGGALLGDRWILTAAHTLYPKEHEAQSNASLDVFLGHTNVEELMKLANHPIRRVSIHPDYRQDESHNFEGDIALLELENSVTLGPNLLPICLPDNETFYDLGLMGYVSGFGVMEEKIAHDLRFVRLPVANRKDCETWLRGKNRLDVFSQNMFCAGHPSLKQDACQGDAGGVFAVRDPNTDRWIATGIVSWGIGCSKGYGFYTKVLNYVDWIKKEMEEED
Nature of the test: SPR (Biacore T200), 37 C, pH 7.4; cyC1r2s2 captured by IPN009, antibody as analyte. As to the method: (§1) The binding property of each sample at pH7.4 and pH6.0 was determined at 37° C. using BIACORE® T200 instrument (Cytiva). […] 20 mM ACES, 150 mM NaCl, 1.2 mM CaCl₂, 1 mg/mL BSA (not containing IgG), 1 mg/mL CMD, 0.05% Tween® 20, 0.005 w/v % NaN₃, pH7.4 or pH6.0 buffer was used as the running buffer. […] The antibody solution was added thereto at 30 μL/min for 120 seconds, the running buffer was then added at 30 μL/min for 180 seconds, and the dissociation constant (KD) of each antibody for hC1r2s2 and cyC1r2s2 was calculated. […] The sensor surface was regenerated every cycle, using 3 M MgCl2 (prepared in-house). The KD value was calculated using BIACORE® T200 evaluation software version 2.0 (Cytiva). The binding strengths under each pH condition were compared by dividing the KD value at pH6.0 with the KD value at pH7.4.
Background: In SPR one partner is held on a chip, and binding of the other changes the refractive index at the surface.

The target in test [2] is T2, recombinant human C1r2s2 tetramer (human, UniProt P09871 16-688; P00736 18-705).
T2 construct: C1s and C1r co-expressed in HEK293 and purified from the supernatant as tetramer; also called hC1r2s2
T2 chain 1: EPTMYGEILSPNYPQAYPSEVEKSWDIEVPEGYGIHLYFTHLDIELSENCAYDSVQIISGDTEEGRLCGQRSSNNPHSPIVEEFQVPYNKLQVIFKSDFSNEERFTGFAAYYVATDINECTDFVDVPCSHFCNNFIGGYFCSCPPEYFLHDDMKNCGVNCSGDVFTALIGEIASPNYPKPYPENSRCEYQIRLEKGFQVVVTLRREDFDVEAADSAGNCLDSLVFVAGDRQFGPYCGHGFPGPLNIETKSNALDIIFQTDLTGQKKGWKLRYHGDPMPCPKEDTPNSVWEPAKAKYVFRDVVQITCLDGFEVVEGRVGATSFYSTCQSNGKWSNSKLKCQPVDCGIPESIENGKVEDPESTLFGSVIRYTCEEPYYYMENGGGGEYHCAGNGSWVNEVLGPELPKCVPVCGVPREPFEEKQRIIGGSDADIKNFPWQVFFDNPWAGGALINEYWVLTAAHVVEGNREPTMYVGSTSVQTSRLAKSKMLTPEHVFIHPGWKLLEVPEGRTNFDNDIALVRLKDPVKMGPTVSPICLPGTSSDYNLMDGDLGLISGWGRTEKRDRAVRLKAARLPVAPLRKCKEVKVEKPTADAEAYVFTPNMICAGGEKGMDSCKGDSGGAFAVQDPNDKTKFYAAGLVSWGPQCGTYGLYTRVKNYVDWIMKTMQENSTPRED
T2 chain 2: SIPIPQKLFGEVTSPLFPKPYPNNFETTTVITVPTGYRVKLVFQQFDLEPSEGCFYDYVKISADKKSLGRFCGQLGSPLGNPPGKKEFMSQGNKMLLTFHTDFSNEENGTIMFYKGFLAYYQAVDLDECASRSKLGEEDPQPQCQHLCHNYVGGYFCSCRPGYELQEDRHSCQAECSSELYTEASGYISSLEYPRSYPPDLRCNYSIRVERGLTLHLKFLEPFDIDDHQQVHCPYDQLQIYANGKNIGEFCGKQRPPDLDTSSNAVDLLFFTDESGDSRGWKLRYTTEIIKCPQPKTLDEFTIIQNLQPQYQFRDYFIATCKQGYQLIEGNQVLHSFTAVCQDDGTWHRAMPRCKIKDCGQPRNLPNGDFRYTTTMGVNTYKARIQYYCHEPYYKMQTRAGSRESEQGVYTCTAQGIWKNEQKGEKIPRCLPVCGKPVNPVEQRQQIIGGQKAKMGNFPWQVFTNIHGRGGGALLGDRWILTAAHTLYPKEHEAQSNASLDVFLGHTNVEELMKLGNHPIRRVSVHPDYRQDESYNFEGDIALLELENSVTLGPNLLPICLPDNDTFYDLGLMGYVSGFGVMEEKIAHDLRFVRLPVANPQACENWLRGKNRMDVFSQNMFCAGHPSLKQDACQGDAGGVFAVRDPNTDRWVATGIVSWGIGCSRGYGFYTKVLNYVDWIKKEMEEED
Nature of the test: SPR (Biacore T200), 37 C, pH 7.4; hC1r2s2 captured by IPN009, antibody as analyte. As to the method:
as §1

The target of test [3] is T2, recombinant human C1r2s2 tetramer. Nature of the test: SPR (Biacore T200), 37 C; ratio of KD at pH 6.0 to KD at pH 7.4. As for the experimental part: as §1
The target in test [4] is T1, recombinant cynomolgus C1r2s2 tetramer. Described as above. As to the method: as §1
In test [5] the target is T2, recombinant human C1r2s2 tetramer. Nature of the test: SPR (Biacore T200), 37 C, pH 6.0; hC1r2s2 captured by IPN009, antibody as analyte. As to the method: as §1
The target of test [6] is T1, recombinant cynomolgus C1r2s2 tetramer. Nature of the test: SPR (Biacore T200), 37 C, pH 6.0; cyC1r2s2 captured by IPN009, antibody as analyte. As for the experimental part:
as §1

B1: COS0637pHv21-G1A3FcgSil+LowpI (antibody, V domains shown)
VH: QVQLVESGGGVVQPGRSLRLSCAASGFTFSAYAMNWIRQPPGKGLEWIGLIYGSGHEFYASWAEERVTISVDTSKNQFSLKLSSVTAADTAVYYCARGRSKNYNSDFHLWGQGTLVTVSS
VL: DIQMTQSPSSLSASVGDRVTITCQAHEILHDKKNLAWYQQKPGQPPKLLIYSASILESGVPSRFSGSGSGTDFTLTISSLQPEDFATYYCHGEFSHGSGDLNHFGQGTKVEIKR
notes: VH 24, VL 47, CH 45, CL 23
For orientation: Kd means the free concentration of one partner at which half of the binding sites on the other are occupied at equilibrium, for simple one-to-one binding. As for B1, the equilibrium dissociation constant (Kd) in test [1] was determined as 0.346 nM; in test [2], 0.26 nM; in test [5] it was 31.3 nM; in test [6], 62.9 nM. In addition, the entries for the “KD (pH 6.0)/KD (pH 7.4)” value in test [3] and in test [4] were 120 and 182, respectively.

B2: COS0637pHv25-G1A3FcgSil+LowpI (antibody, V domains shown)
VH: QVQLVESGGGVVQPGRSLRLSCAASGFTFSAYAMNWIRQPPGKGLEWIGLMYGSGHEFYASWAEERVTISVDTSKNQFSLKLSSVTAADTAVYYCARGRSKNYNSDFHLWGQGTLVTVSS
VL: DIQMTQSPSSLSASVGDRVTITCQAHEILHDKKNLAWYQQKPGQPPKLLIYGASQRESGVPSRFSGSGSGTDFTLTISSLQPEDFATYYCHGEFPHSSADLNHFGQGTKVEIKR
notes: VH 32, VL 55, CH 45, CL 23
For B2, the Kd stood at 0.243 nM in test [1], 0.198 nM in test [2], 21.3 nM in test [5] and 67.1 nM in test [6]. For the same molecule, the “KD (pH 6.0)/KD (pH 7.4)” value came to 108 in test [3] and 276 in test [4].

B3: COS0637pHv23-G1A3FcgSil+LowpI (antibody, V domains shown)
VH: QVQLVESGGGVVQPGRSLRLSCAASGFTFSAYAMNWIRQPPGKGLEWIGLIYGTGHEFYASWAEERVTISVDTSKNQFSLKLSSVTAADTAVYYCARGRSKNYNSDFHIWGQGTLVTVSS
VL: DIQMTQSPSSLSASVGDRVTITCQAHEILHDKKNLAWYQQKPGQPPKLLIYSASILESGVPSRFSGSGSGTDFTLTISSLQPEDFATYYCHGEFSHGSADLNHFGQGTKVEIKR
notes: VH 28, VL 51, CH 45, CL 23
As for B3, the Kd in test [1] was found to be 0.334 nM; in test [2], 0.249 nM; in test [5] it was 27.4 nM; in test [6] it was 46.3 nM. The “KD (pH 6.0)/KD (pH 7.4)” value in test [3] stood at 110; in test [4], 139.
